Measured values from US6610541B2, “Recombinant, active caspases and uses thereof” (Thomas Jefferson University, priority 1998, dated 2003).
Peptide text beside a SMILES is read from it. * marks the point of attachment. Cbz = O=C(OCc1ccccc1)*; CH2F = FC*

Legend:
rev-caspase-3 = biological target: T1, rev-caspase-3 (Homo sapiens, UniProt P42574); assay: Autocatalytic processing of in vitro translated rev-caspase-3 (SDS-PAGE/autoradiography); type: biochemical; set-up: T7-tag (15 residues) (N); made in house; host or cells: in vitro translation in rabbit reticulocyte lysate (TNT Kit, Promega)
T1 sequence (P42574 with tags, fused parts or gaps): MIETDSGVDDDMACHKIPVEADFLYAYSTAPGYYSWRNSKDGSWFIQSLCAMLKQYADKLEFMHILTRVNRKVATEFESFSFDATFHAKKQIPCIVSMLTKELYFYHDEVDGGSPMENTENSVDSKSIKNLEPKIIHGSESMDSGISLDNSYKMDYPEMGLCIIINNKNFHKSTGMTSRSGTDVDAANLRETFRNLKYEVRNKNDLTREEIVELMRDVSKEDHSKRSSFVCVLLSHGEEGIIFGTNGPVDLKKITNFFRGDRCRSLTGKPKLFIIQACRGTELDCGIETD
Procedure: (§1) FIGS. 2B and C are scanned images of autoradiograms representing SDS-PAGE analysis of the autoprocessing of rev-caspase-3 and -6, respectively in the presence of varying levels of selected caspase inhibitors. Rev-caspase-3 (FIG. 2B) or rev-caspase-6 (FIG. 2C) were in vitro translated in the presence of increasing concentrations of DEVD-CHO […]; (SEQ ID NO:52), or zVAD-fmk (0-5 μM). The translation products were then analyzed as in FIG. 2A. WT, wild-type.
(§2) ^35S-labeled caspases (wild-type and rev-caspases) were obtained by in vitro translation in the presence of ^35S-methionine using a coupled transcription/translation system in rabbit reticulocyte lysate using TNT Kit (Promega) according to the manufacturer's recommendations.
(§3) To test the effect of selected caspase inhibitors on the autocatalytic activity of rev-caspase-3 and 6, the rev-caspases were translated as in Example 3, but in the presence of varying amounts of inhibitors.

rev-caspase-6 = biological target: T2, rev-caspase-6 (Homo sapiens, UniProt P55212); assay: Autocatalytic processing of in vitro translated rev-caspase-6 (SDS-PAGE/autoradiography); type: biochemical; set-up: T7-tag (15 residues) (N); made in house; host or cells: in vitro translation in rabbit reticulocyte lysate (TNT Kit, Promega); settings: at the concentration used (zVAD-fmk 0-5 μM); p35 data not shown
T2 sequence (P55212 with tags, fused parts or gaps): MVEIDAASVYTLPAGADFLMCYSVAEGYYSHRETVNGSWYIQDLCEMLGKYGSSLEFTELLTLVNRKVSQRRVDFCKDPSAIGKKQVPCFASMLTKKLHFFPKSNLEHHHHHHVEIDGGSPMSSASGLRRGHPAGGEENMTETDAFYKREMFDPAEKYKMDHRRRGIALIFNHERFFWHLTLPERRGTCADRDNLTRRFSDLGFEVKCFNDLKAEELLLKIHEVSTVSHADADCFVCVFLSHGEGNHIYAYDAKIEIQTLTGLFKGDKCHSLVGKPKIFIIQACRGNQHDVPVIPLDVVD
Procedure: as §1, §2, §3

MCF-7 cells = assay: Induction of apoptosis in transfected MCF-7 cells (round blue apoptotic cells); type: cell-based, human
Procedure: FIGS. 4A and B are bar diagrams representing the ability of rev-caspase-3 and -6 to induce apoptosis in MCF-7 cells. MCF-7 cells were transiently transfected with either rev-caspase-3 (FIG. 4A), or rev-caspase-6 (FIG. 4B) expression constructs in combination with 4-fold of CrmA, p35 or Bcl-2 expression constructs, or 20 μM zVAD-fmk. Cells transfected with an empty vector or the wild-type caspase-3 or -6 were used as controls.
To express the rev-caspases in mammalian cells and assay their apoptotic activity, they were amplified with the T7-tag primer and the LS-reverse primers using the pET28a constructs as templates, and subcloned into the mammalian double expression vector pRSC-LacZ (MacFarlane et al., J. Biol. Chem., 272: 25417-25420, 1997; Tsang et al., Bio/Technology, 22: 68, 1997). This vector allows the expression of lacZ under the Rous Sarcoma virus promoter, and the test cDNA under the CMV promoter. To assay for apoptosis, MCF-7 or 293 cells were transfected, using the method commercially available as the Lipofect Amine method (Life Technologies, Inc.), with the pRSC-LacZ constructs in the presence or absence of different apoptosis-inhibitors. 30 h after transfection cells were stained with β-galactosidase and examined for morphological signs of apoptosis. The percentage of round blue apoptotic cells (mean±SD) were represented as a function of total blue cells under each condition (n≧3).
To determine the apoptotic activity of rev-caspase-3 and 6 in vivo, the rev-caspases were expressed in human MCF-7 cells, transfected as explained above in Example 2.

[1] = biological target: T3, uncleavable rev-caspase-3 (Homo sapiens, UniProt P42574, D28A/D9A); assay: In vitro translation of uncleavable rev-caspase-3: His6-T7-tag processing; type: biochemical
T3 construct: uncleavable rev-caspase-3 (B); made in house; host or cells: in vitro translation in rabbit reticulocyte lysate (TNT Kit, Promega)
T3 sequence (P42574 with tags, fused parts or gaps D9A/D28A): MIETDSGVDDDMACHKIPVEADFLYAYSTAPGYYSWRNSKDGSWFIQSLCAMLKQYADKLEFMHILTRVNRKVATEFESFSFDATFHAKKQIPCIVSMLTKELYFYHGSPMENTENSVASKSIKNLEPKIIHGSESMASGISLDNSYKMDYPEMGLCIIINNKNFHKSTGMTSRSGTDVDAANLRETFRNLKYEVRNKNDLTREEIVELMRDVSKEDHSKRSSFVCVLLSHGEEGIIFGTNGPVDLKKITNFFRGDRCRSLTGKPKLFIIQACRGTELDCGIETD
Source text: FIG. 5A is a scanned image of an autoradiogram representing SDS-PAGE analysis of the enzymatic activity of uncleavable rev-caspase-3. Uncleavable rev-caspase-3 was in vitro translated in the absence or the presence of increasing concentrations of DEVD-CHO (SEQ ID NO:52),. The translation product contains a cleavable 35 residues-long His6-T7-tag at its N-terminus. The active site mutant rev-caspase-3 (Rev C/A) was used as a control. The p32 cleavage product without the His6-T7-tag is indicated to the right.
^35S-labeled caspases (wild-type and rev-caspases) were obtained by in vitro translation in the presence of ^35S-methionine using a coupled transcription/translation system in rabbit reticulocyte lysate using TNT Kit (Promega) according to the manufacturer's recommendations. […] Because the in vitro translated products are present at very low concentration in the reaction mixture, the observed cleavage must be attributed to an intramolecular processing within the caspase heterotetramer.
However, to follow the activity of this molecule a cleavable 35 residue long His6-T7-tag N-terminal to the IETD (SEQ ID NO:53) site was introduced (see FIG. 1B). […] Nevertheless, the translated molecule was active as evident from its ability to cleave its T7-tag to form the p32 species (FIG. 5). In the presence of 400 nM DEVD-CHO (SEQ ID NO:52), processing of the T7-tag was inhibited and only the full length p34 species can be seen. […] Thus by mimicking the mature caspase structure, it is possible to design a contiguous active caspase molecules.

human PARP = assay: Cleavage of PARP by bacterially expressed caspases (Western blot); type: biochemical; settings: BL-21 bacterial extracts, 2 h at 37° C.
Procedure: (§4) FIGS. 3A and B are scanned images representing the SDS-PAGE analysis of the ability of rev-caspase-3 (imaged by western blot) and -6 (imaged by autoradiogram) to cleave PARP and lamin, respectively. In FIG. 3A purified human PARP was incubated with buffer (lane 1) or BL-21 bacterial extracts prepared from bacteria transformed with caspase-3 (lane 2), rev-caspase-3 (lane 3), caspase-6 (lane 4), rev-caspase-6 (lane 5) constructs or empty pET28a vector (lane 6) for 2 h at 37° C. The reaction products were then analyzed by SDS-PAGE and Western blotting with anti-human PARP antibody. In FIG. 3B a cDNA encoding the C-terminus of lamin A (amino acids) which contain the caspase-6 cleavage site (VEIDA); (SEQ ID NO:116), was amplified by PCR and in vitro translated in the presence of ^35S-methionine. The labeled product was incubated with buffer (lane 1) or the BL-21 bacterial extracts listed above for 2 h at 37° C., and then analyzed by SDS-PAGE and autoradiography. The cleavage products are indicated to the right.
(§5) At limited caspase concentrations, poly(ADP) ribose polymerase (PARP) is specifically cleaved by caspase-3 and 7 but not other caspases. Similarly, lamin is specifically cleaved by caspase-6 but not other caspases. […]

lamin A = assay: Cleavage of in vitro translated lamin A C-terminus by bacterially expressed caspases; type: biochemical; settings: BL-21 bacterial extracts, 2 h at 37° C.
Procedure: as §4, §5

COC(=O)C[C@H](NC(=O)[C@H](C)NC(=O)[C@@H](NC(=O)OCc1ccccc1)C(C)C)C(=O)CF [z-VAD-fmk] (Cbz-Val-Ala-Asp(OMe)-CH2F)
inhibitory effect on rev-caspase-3 autocatalytic activity compared with rev-caspase-6 (rev-caspase-3; at the concentration used (zVAD-fmk 0-5 μM), p35 data not shown): nearly an equal inhibitory effect
amount required relative to DEVD-CHO to obtain complete inhibition of caspase-3 activity (rev-caspase-3; in vitro translation of rev-caspase-3): ~10 fold
inhibitory effect on rev-caspase-6 autocatalytic activity compared with rev-caspase-3 (rev-caspase-6): nearly an equal inhibitory effect

B1: Noncleavable Rev-caspase-3: rev-caspase-3 with DEVD site removed and Asp9 and 28 mutated (SEQ ID NO:35) (protein)
chain: T3 sequence (P42574 with tags, fused parts or gaps D9A/D28A)
modifications: OTHER INFORMATION: Uncleavable Rev-Caspase-3 co ntructed from human caspase -3
induction of apoptosis on expression in cells (MCF-7 cells): potently induced apoptosis
activity of translated molecule (cleaves its T7-tag to form the p32 species) [1]: active
cleavage between the two subunits upon in vitro translation [1]: no evidence of cleavage between the two subunits

B2: wild-type caspase-3: wild-type human caspase-3 (SEQ ID NO:12) (protein)
chain: MENTENSVDSKSIKNLEPKIIHGSESMDSGISLDNSYKMDYPEMGLCIIINNKNFHKSTGMTSRSGTDVDAANLRETFRNLKYEVRNKNDLTREEIVELMRDVSKEDHSKRSSFVCVLLSHGEEGIIFGTNGPVDLKKITNFFRGDRCRSLTGKPKLFIIQACRGTELDCGIETDSGVDDDMACHKIPVDADFLYAYSTAPGYYSWRNSKDGSWFIQSLCAMLKQYADKLEFMHILTRVNRKVATEFESFSFDATFHAKKQIPCIVSMLTKELYFYH
cleavage of PARP (human PARP): efficiently cleaved PARP

B3: rev-caspase-3: contiguous caspase-3 with small subunit fused N-terminal to large subunit, DEVDG cleavage site between them (SEQ ID NO:34) (protein)
chain: T1 sequence (P42574 with tags, fused parts or gaps)
modifications: OTHER INFORMATION: Rev-Caspase-3 contructed fro m human caspase -3
apoptosis in transfected cells (MCF-7 cells; 30 h after transfection): ~90%
cleavage of PARP (human PARP): efficiently cleaved PARP
autocatalytic processing in the in vitro translation reaction (rev-caspase-3 constructs) (rev-caspase-3; rabbit reticulocyte lysate, 35S-methionine): able to undergo autocatalytic processing

B4: wild-type caspase-6: wild-type human caspase-6 (SEQ ID NO:21) (protein)
chain: MSSASGLRRGHPAGGEENMTETDAFYKREMFDPAEKYKMDHRRRGIALIFNHERFFWHLTLPERRGTCADRDNLTRRFSDLGFEVKCFNDLKAEELLLKIHEVSTVSHADADCFVCVFLSHGEGNHIYAYDAKIEIQTLTGLFKGDKCHSLVGKPKIFIIQACRGNQHDVPVIPLDVVDNQTEKLDTNITEVDAASVYTLPAGADFLMCYSVAEGYYSHRETVNGSWYIQDLCEMLGKYGSSLEFTELLTLVNRKVSQRRVDFCKDPSAIGKKQVPCFASMLTKKLHFFPKSN
cleavage of lamin (lamin A): efficiently cleaved lamin
